Results reported in patent US6613506B1, “Compositions and methods for inhibiting human immunodeficiency virus infection by down-regulating human cellular genes” (Subsidiary No. 3, Inc., priority 2000, dated 2003).

test system: HIV-1IIIB; assay: Selection of GSEs from HeLa cell library using productive infection of CEM-ss cells; assay type: cell-based
Description: Additionally, a normalized RFE library made from HeLa cells was transferred into CEM-ss cells and the neo resistant population was infected with TCID50 of 3000/10^6 cells of HIV-1IIIB. This RFE library was represented by 50×10^6 independent recombinant clones. Four and seven days after infection, a purified anti-CD4 monoclonal antibody, L77 (available from Becton Dickinson), was added at 5 Φg/mL to prevent syncytia formation. Syncytia formation is thought to be prevented by blocking the interaction between gp120 expressed on the surface of an infected cell and CD4 on the surface of an uninfected cell. […] At 10-12 days after infection, CD4^+, p24^− cell population representing uninfected cells were sorted. Genomic DNA from the CD4^+, p24^− cells was purified and used for PCR amplification of inserts with the vector-derived primers. The amplified mixture was digested with EcoRI and BamHI and cloned back into the retroviral vector. The selection was repeated for additional rounds.
The selection of GSEs from HeLa cell library using productive infection of CEM-ss cells isolated […] additional nucleic acid molecules which have substantial sequence identity with other cellular genes.
The selection of GSEs from a HeLa cell library using productive infection of CEM-ss cells isolated 21 additional nucleic acid molecules which have substantial sequence identity with other cellular genes. […] The complement of SEQ ID NO:25 is represented by SEQ ID NO:26. […] The complement of SEQ ID NO:27 is represented by SEQ ID NO:28. […] The complement of SEQ ID NO:29 is represented by SEQ ID NO:30. […] The complement of SEQ ID NO:31 is represented by SEQ ID NO:32. […] The complement of SEQ ID NO:33 is represented by SEQ ID NO:34. […] The complement of SEQ ID NO:35 is represented by SEQ ID NO:36. […] The complement of SEQ ID NO:37 is represented by SEQ ID NO:38. […] The complement of SEQ ID NO:39 is represented by SEQ ID NO:40. […] The complement of SEQ ID NO:41 is represented by SEQ ID NO:42. […] The complement of SEQ ID NO:43 is represented by SEQ ID NO:44. […] The complement of SEQ ID NO:45 is represented by SEQ ID NO:46. […] The complement of SEQ ID NO:47 is represented by SEQ ID NO:48. […] The complement of SEQ ID NO:49 is represented by SEQ ID NO:50. […] The complement of SEQ ID NO:51 is represented by SEQ ID NO:52. […] The complement of SEQ ID NO:53 is represented by SEQ ID NO:54. […] The complement of SEQ ID NO:55 is represented by SEQ ID NO:56. […] The complement of SEQ ID NO:57 is represented by SEQ ID NO:58. […] The complement of SEQ ID NO:59 is represented by SEQ ID NO:60. […] The complement of SEQ ID NO:61 is represented by SEQ ID NO:62. […] The complement of SEQ ID NO:77 is represented by SEQ ID NO:78. […] The complement of SEQ ID NO:87 is represented by SEQ ID NO:88. […] The complement of SEQ ID NO:99 is represented by SEQ ID NO:100. […] The complement of SEQ ID NO:101 is represented by SEQ ID NO:102. […] The complement of SEQ ID NO:103 is represented by SEQ ID NO:104. […] The complement of SEQ ID NO:105 is represented by SEQ ID NO: 106. […] The complement of SEQ ID NO:107 is represented by SEQ ID NO:108. […] The complement of SEQ ID NO:109 is represented by SEQ ID NO:110. […] The complement of SEQ ID NO:111 is represented by SEQ ID NO:112. […] The complement of SEQ ID NO:113 is represented by SEQ ID NO:114. […] The complement of SEQ ID NO:115 is represented by SEQ ID NO:116. […] The complement of SEQ ID NO:117 is represented by SEQ ID NO:118.

| Molecule | HIV-suppressive activity of the GSE and active orientation |
| --- | --- |
| CF-579: GSE, SEQ ID NO:61, sense; glucosidase alpha II gene (nucleic acid, listed as Homo sapiens) sense: AGTTGGTATCAATGGAGTGGGAGAGGTGAGGAGATCACAAGAGGAATTTGGAGCCCAGGGTCAGCCCTCTCATCCTGCCCAAATGTTGGCAGAATCTGGGTCTTAGACTAGCATAAGTGAAGTCTGGGGAGGGCCGAAC | interferes with HIV replication in a sense orientation |
| CF-547: GSE, SEQ ID NO:51, antisense; recepin endoprotease gene (nucleic acid, listed as Homo sapiens, chemistry not fully specified, recepin endoprotease gene) antisense: ACAGAAGGAGAGACCGAATACAAATTTGAATGGCAGAAAGGAGCCCCACGAGAAAAATATGCCAAAGATGACATGAACATCAGAGATCAGCCCTTTA | interferes with HIV replication as an antisense molecule |
| CF-320: GSE, SEQ ID NO:27, sense; double-strand break DNA repair gene (nucleic acid, listed as Homo sapiens) sense: GCCTGCACATGACGATATGGATGAGGATGATAATGTATCAATGGGTGGGCCTGATAGTCCTGATTCAGTGGATCCCGT | interferes with HIV infection in the sense orientation |
| CF-622: GSE, SEQ ID NO:87, antisense; Rox gene (nucleic acid, listed as Homo sapiens, chemistry not fully specified, Rox gene) antisense: GGAAAAAAAAAAAAACTACAAAAACCCTAATTTTGTACATACTGTATTTTTACTATTGAACTGTATTCTAGTGGCTGTTCATGCTCCAAGACTTTAGTTACCGAGACATGAATACTATCCATG | interferes with HIV replication as an antisense molecule |
| H1C-16A3: GSE, SEQ ID NO:101, antisense; human GNB2L1 gene (nucleic acid, listed as Homo sapiens) antisense: AGGCGGAGAGGATCATGTCCGGGAACTGCGGGGTAGTAGCGATCTGGGTTACCCAGCCGTTGTGGCCCTTGAGGGTGCCACGAAGGGTCATCTGCTCA | interferes with HIV replication as an antisense molecule |
| H1C-2F9: GSE, SEQ ID NO:103, antisense; ArgRS gene (nucleic acid, listed as Homo sapiens) antisense: ATACTTTAATTTTAAATTTTCTTCTTGTAACTGCTCCAAATTCGGAGAAGCTCCTAAACAGCCACAGTTTTTCAACCGGTCAATTTCAGCAGTCAGAGATTTAATCTCTTCTTCCTGCTGCAGCAGCCGCGCGGAGCACTCAGACATCAGTACGTCCATCCTCCCATCAGCG | interferes with HIV replication as an antisense molecule |
| CF-42: GSE, SEQ ID NO:37, sense; squalene synthetase gene (nucleic acid, listed as Homo sapiens, chemistry not fully specified, squalene synthetase gene) sense: TGGCTGGGACCTTTAGGAAAGTGAAATGCAGGTGAGAAGAACCTAAACATGAAAGGAAAGGGTGCCTCATCCCAGCAACCTGTCCTTGTGGGTGATGATCACTGTGCTGCTTGTGGCTCAT | interferes with HIV replication in the sense orientation |
| CF-624: GSE, SEQ ID NO:57, sense; p18 protein gene (nucleic acid, listed as Homo sapiens, chemistry not fully specified, p18 protein gene) sense: TGTTCTGAGAACTGACTTTCTCCCCATCCCCTTCCTAAATATCCAAAGACTGTACTGGCCAGTGTCATTTTATTTTTTCCCTCCTGACAAT | interferes with HIV replication in a sense orientation |
| CF-335: GSE, SEQ ID NO:35, antisense; protein phosphatase 2A gene (nucleic acid, listed as Homo sapiens, chemistry not fully specified, protein phosphatase 2A gene) antisense: GGTAAGGGTAGGGCACTTTTAATTTAAATGACTTCTTGCACCATCTTGCCTAATGGACTAGATTGGACTGTATCAACATTGATTTACTC | interferes with HIV replication as an antisense molecule |
| H1C-23G2: GSE, SEQ ID NO:113, antisense; human CTSB gene (nucleic acid, listed as Homo sapiens) antisense: GCCGGTGGCTCACATGGCCTGTCTGCACTGTAACCACAGGCTGGGATGTAGCCAGGACTTGGTCTCCTTGGAAGACAGGTCTGATGTTTGGCCAATCCAGTCCTTCAGACCCTGTCTGAAACTTGTA | interferes with HIV replication as an antisense molecule |
| H1C-6G5: GSE, SEQ ID NO:117, antisense; human glutaredoxin gene (nucleic acid, listed as Homo sapiens) antisense: TTTAAAGGGACAGCTTCGAAGACATTTCCATCTGGTATACTTCACTAGTTAGCAATGCCCAGGAATGC | interferes with HIV replication as an antisense molecule |
| CF-287: GSE, SEQ ID NO:77, sense; Na+-D-glucose cotransport regulator gene (nucleic acid, listed as Homo sapiens) sense: CAGGTTGTCTTTAAGATGTTCTTTTAGACAGCTGCACATTGTAGACCCTTTCACCTGCCCTACACCAAAGATGTACGATGCACTAGGAAACTGCTCATAGGATTTCTGTCAGCT | interferes with HIV replication in a sense orientation |
| CF-619: GSE, SEQ ID NO:53, sense; Arg/Abl interacting protein (ArgBP2A) gene (nucleic acid, listed as Homo sapiens, chemistry not fully specified) sense: GTTCCACCTCCAGTCCCGCCGCTTCGACCAAGAGATCGGTCTTCAACAGAAAAGCATGACTGGGATCCTCCAGA | interferes with HIV replication in the sense orientation |
| CF-50: GSE, SEQ ID NO:39, sense; squalene synthetase gene (nucleic acid, listed as Homo sapiens, chemistry not fully specified, squalene synthetase gene) sense: AAGTGAAATGCAGGTGAGAAGAACCTAAACATGAAAGGAAAGGGTGCCTCATCCCAGCAACCTGTCCTTGTGGGTGATGATCACTGTGCTGCTTGTGGCTCATGGCAGAGCATTCAGTGCCAA | exhibits its HIV-suppressive activities in the sense orientation |
| CF-630: GSE, SEQ ID NO:59, antisense; p40 protein gene (nucleic acid, listed as Homo sapiens, chemistry not fully specified, p40 protein gene) antisense: GCTTAGAGTATGGAGAACATGGATGCAGAACACCAGACACCCCTTTCTCTCTCTTTGAAGGAATGGCTGGAACAATATATTTCCTGGCTGACCTGCTAGTCCCCACAAAAGCCAGGTTCG | interferes with HIV replication as an antisense molecule |
| CF-322: GSE, SEQ ID NO:31, sense; anti-proliferative factor (BTG-1) gene (nucleic acid, listed as Homo sapiens) sense: CGACAGCTGCAGACCTTCAGCCAGAGCCTGCAGGAGCTGCTGGCAGAACATTATAAACATCACTGGTTCCCAGAAAA | interferes with HIV replication in the sense orientation |
| H1C-37E11: GSE, SEQ ID NO:115, antisense; human cathepsin L gene (nucleic acid, listed as Homo sapiens) antisense: GTCGACCTTCCTCTTTACCGTCCACCAGCTCACACAGTGGGGTAGCTGGCTGCTGAGGCAATTCCACAATGGTTTCTCT | interferes with HIV replication as an antisense molecule |
| H1C-11H9: GSE, SEQ ID NO:99, antisense; human SHIP gene (nucleic acid, listed as Homo sapiens) antisense: GGAACTCCAGGTAGAATTTGGTCTGGGACTTGGTCTTCAATGTGGCATAGCACCTGAGAAACTCAAT | interferes with HIV replication as an antisense molecule |
| H1C-16E3: GSE, SEQ ID NO:111, antisense; FYN gene (nucleic acid, listed as Homo sapiens) antisense: TTTCTCGCTTGTATTCCTGAAGATGAGTTTGGCCCTGTGACTCTGAAGGGTCGGCTATTAACTGAGACATCCTCTGTCGGGTTGCCCCCCGTGTTATATTTCGCCATGAGGGACTTTACATCTGCCTTTCCATCCTACAAACATAGGGAACAAAAAATAGCTGAGAGACA | interferes with HIV replication as an antisense molecule |
